Assay results taken from article PMC12884772, “Macrophagic Sclerostin Loop2‐ApoER2 Interaction Required by Sclerostin for Cardiovascular Protective Action” (Advanced Science, 2025).
pKd: −log10 of the molar value.

What was measured:
His-sclerostin loop2 = assay: BLI; Octet RED96e; Figure 6B, 'ApoER2 to sclerostin' and 'to sclerostin loop2'; the methods tell of biotin-ApoER2 loaded on streptavidin biosensors, PBS with 0.02% Tween 20; partner loaded in this panel not given
[1] = target: full-length His-sclerostin (not stated (recombinant human and mouse sclerostin used in the paper)) (UniProt Q99P68); assay: as above
[2] = target: ApoER2 protein (R&D, 3520-AR) (UniProt Q14114); assay: BLI; Octet RED96e; Figure S6B, 'sclerostin to ApoER2'; partner loaded in this panel not given
Chain of ApoER2 protein (R&D, 3520-AR) (Q14114 42-826): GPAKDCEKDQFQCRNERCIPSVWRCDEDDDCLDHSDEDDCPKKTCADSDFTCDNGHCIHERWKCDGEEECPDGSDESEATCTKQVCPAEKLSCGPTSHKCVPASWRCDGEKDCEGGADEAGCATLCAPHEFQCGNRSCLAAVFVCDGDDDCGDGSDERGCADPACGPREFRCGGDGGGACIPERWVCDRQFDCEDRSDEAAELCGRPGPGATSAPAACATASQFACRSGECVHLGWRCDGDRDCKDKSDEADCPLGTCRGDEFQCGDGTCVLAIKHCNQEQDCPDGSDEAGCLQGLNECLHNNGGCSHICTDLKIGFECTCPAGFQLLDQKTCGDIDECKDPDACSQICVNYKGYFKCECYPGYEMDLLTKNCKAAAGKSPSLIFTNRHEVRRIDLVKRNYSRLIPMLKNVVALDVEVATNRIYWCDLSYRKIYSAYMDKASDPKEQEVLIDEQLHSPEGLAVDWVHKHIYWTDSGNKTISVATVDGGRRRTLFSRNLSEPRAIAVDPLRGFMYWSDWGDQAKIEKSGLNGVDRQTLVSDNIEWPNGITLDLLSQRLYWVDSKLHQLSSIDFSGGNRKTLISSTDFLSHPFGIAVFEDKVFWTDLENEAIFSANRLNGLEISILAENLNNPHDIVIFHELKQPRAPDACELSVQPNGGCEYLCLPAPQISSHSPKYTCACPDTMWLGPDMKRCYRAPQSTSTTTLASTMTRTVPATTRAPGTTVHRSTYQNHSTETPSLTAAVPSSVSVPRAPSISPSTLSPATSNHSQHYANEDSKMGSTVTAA

Chain of full-length His-sclerostin (Q99P68 24-211): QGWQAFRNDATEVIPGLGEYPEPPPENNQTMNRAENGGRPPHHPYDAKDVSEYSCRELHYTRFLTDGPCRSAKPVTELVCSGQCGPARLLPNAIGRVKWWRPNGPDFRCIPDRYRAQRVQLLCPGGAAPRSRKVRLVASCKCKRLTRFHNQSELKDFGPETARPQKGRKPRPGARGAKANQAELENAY
Chain of full-length His-sclerostin (not stated (recombinant human and mouse sclerostin used in the paper)) (Q99P68 24-211): as above

| pKd (His-sclerostin loop2) | pKd [1] | pKd [2] | Substance |
| --- | --- | --- | --- |
| 7.64 | 8.42 | – | ApoER2 protein (R&D, 3520-AR) (from UniProt Q14114 42-826) (receptor) |
| – | – | 8.68 | full-length His-sclerostin (from UniProt Q99P68 24-211) (natural protein) |
